Measured values reported in IntAct's records for PubMed 26766587.

B1: N-myc proto-oncogene protein (Homo sapiens), P04198 (parent)
chain: MPSCSTSTMPGMICKNPDLEFDSLQPCFYPDEDDFYFGGPDSTPPGEDIWKKFELLPTPPLSPSRGFAEHSSEPPSWVTEMLLENELWGSPAEEDAFGLGGLGGLTPNPVILQDCMWSGFSAREKLERAVSEKLQHGRGPPTAGSTAQSPGAGAASPAGRGHGGAAGAGRAGAALPAELAHPAAECVDPAVVFPFPVNKREPAPVPAAPASAPAAGPAVASGAGIAAPAGAPGVAPPRPGGRQTSGGDHKALSTSGEDTLSDSDDEDDEEEDEEEEIDVVTVEKRRSSSNTKAVTTFTITVRPKNAALGPGRAQSSELILKRCLPIHQQHNYAAPSPYVESEDAPPQKKIKSEASPRPLKSVIPPKAKSLSPRNSDSEDSERRRNHNILERQRRNDLRSSFLTLRDHVPELVKNEKAAKVVILKKATEYVHSLQAEEHQLLLEKEKLQARQQQLLKKIEHARTC
partner: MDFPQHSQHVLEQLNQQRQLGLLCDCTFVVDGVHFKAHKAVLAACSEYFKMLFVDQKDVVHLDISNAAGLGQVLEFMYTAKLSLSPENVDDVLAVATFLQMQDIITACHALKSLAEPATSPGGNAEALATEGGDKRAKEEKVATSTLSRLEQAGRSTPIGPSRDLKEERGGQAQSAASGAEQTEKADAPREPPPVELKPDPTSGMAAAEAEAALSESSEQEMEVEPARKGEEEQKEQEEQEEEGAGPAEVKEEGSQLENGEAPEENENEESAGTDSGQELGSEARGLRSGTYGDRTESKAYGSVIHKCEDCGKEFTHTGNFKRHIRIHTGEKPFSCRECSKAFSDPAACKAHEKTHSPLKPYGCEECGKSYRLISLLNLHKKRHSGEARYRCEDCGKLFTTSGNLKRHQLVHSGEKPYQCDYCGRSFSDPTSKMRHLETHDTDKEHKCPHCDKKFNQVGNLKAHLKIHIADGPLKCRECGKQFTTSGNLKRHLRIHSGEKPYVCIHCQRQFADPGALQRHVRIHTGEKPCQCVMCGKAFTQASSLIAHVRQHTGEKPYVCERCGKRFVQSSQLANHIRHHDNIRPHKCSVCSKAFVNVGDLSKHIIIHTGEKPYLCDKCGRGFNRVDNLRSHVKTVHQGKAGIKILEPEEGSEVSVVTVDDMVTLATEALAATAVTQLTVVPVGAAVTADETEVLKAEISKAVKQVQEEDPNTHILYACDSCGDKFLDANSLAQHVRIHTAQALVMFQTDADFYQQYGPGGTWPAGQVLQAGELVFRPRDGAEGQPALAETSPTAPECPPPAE

Variants of: B1
Conditions: with zbt17_human ZBTB17, Q13105

| Variant | effect of a mutation on the interaction |
| --- | --- |
| V421D | decreasing interaction strength |
